# Test results: patent publication US20180251563A1 (SUBDOMAIN, published 2018)
# T1: Fc-fusion protein comprising the extracellular domain of CD123 fused to human IgG1 Fc (human, UniProt P26951 19-305)
# T1 construct: also called Fc-CD123; not shown: human IgG1 Fc
# T1 sequence: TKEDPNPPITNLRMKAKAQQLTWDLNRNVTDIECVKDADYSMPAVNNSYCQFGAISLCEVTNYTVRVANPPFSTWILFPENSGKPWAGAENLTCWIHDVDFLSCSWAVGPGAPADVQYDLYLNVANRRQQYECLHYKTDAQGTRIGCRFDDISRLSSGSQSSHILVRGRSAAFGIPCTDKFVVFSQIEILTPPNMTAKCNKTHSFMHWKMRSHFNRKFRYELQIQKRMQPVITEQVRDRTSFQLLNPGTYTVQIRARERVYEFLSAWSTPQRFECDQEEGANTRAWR
# Tests used:
# [1] = molecular target: human PD-L1 (human, UniProt Q9NZQ7 19-238, limits assumed); assay: ELISA, FLAG-tagged pb04 on immobilised Human PDL1-Fc
# Chain of human PD-L1 (Q9NZQ7 19-238 limits assumed): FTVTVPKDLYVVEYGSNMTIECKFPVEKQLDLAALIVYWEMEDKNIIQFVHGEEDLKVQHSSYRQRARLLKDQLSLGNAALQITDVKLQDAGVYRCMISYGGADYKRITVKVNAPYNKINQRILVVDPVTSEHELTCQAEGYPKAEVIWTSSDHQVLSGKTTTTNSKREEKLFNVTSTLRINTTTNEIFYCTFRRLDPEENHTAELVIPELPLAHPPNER
# Procedure: (§1) FIG. 16A establishes that a soluble DBDpp selected for binding to human PD-L1 (pb04 in this nonlimiting embodiment), can also bind PD-L1 of cynomolgus (Macaca fascicularis), as assessed by ELISA. Human PD-L1 or cynomolgus PD-L1 was immobilized in separate wells of an ELISA plate. Soluble DBDpp (FLAG tagged) directed against PD-L1 was incubated in the respective plates to assess the degree of binding with PD-L1 from each species. As shown, pb04 DBDpp binds to both human and cynomolgus PD-L1.
# [2] = molecular target: T2, cynomolgus PD-L1 (cynomolgus (Macaca fascicularis), UniProt G7PSE7 19-238); assay: ELISA, FLAG-tagged pb04 on immobilised Cynomolgus PDL1-Fc
# T2 construct: also called PD-L1 of cynomolgus (Macaca fascicularis)
# T2 sequence (G7PSE7 entry or part of it): as the sequence (Q9NZQ7 19-238 limits assumed) above, with A33T, A34S, S62N, R68Q, Q82R, F173L, T185A, T192I, H215L counted along it
# Procedure: as §1
# [3] = molecular target: T3, PD-L1-Fc (UniProt Q9NZQ7 19-238); assay: ELISA on PD-L1-Fc, in vitro translated DBDpp-6xHIS heated 2 minutes at 25-100 C and serially diluted, detection with anti-6xHIS-HRP
# T3 construct: purified recombinant target-Fc protein; also called FC-PD-L1; not shown: Fc
# T3 sequence (Q9NZQ7 19-238 limits assumed): as the sequence (Q9NZQ7 19-238 limits assumed) above
# Procedure: DBDpp-6×HIS fusions (pb04 and pb06) and scFv-6×HIS fusions were expressed through in vitro transcription and translation reactions (NEB, PureExpress). Samples were diluted in ELISA blocking buffer (Thermo Fisher) 30 fold. Individual samples were subsequently incubated at either 25° C., 40° C., 55° C., 70° C. or 100° C. for 2 minutes and then rapidly returned to room temperature. The temperature increase, followed by rapid cooling can cause denaturation of the protein or other breakdown of the three-dimensional structure of proteins that reduce target interaction and/or binding. The ability of proteins to bind with a ligand, such as a target tumor antigen, after being exposed to denaturing conditions indicates either enhanced stability during exposure to elevated temperature or an ability to re-fold and maintain function after exposure. […]
# The heat-exposed samples were serially diluted in ELISA buffer and measured for binding to PD-L1-Fc in ELISA. Bound proteins were detected with HRP-conjugated rabbit anti-6×HIS polyclonal antibody (Abcam). […] Since this particular scFv is not configured to bind PD-L1, this function as a negative control, and as expected, no binding is detected for any of the DR5 scFv, regardless of the temperatures they were exposed to. […]
# [4] = molecular target: T1, Fc-fusion protein comprising the …; assay: flow cytometry, transiently transfected 293T cells incubated with CD123-Fc, detection with PE anti-human IgG; CAR expression by anti-FLAG
# Procedure: 293T cells were transiently transfected with pcDNA3 expression vectors encoding DBDpp containing CARs using (see, e.g., FIG. 5B) Lipofectamine 3000 (Life Technologies). After 24 hours, cells were collected using CellStripper™. Cells were assessed for CAR expression using a fluorescent-labeled anti-FLAG antibody. DBDpp containing CARs binding to CD123 was measured by incubating cells with a Fc-fusion protein comprising the extracellular domain of CD123 fused to human IgG1 Fc in cell culture media at 37° for 30 minutes, washing, and then detection with a PE anti-human IgG antibody. Both CD123 binding and CAR expression (FLAG Tag) were assayed by flow cytometry. Data are shown in FIG. 17, and each data point indicates the average FLAG expression and CD123-binding for each of the DBDpp-CARs from multiple experiments.
# [5] = molecular target: T3, PD-L1-Fc; assay: ELISA, purified FLAG-tagged protein on PD-L1-Fc coated wells
# [6] = molecular target: T4, recombinant, biotinylated, Human 4-1BB/TNFRSF9/CD137-Fc (human, UniProt Q07011 24-186, biotinylated (F2NNK selection)); assay: phage ELISA, target-Fc against non-specific control (IgG Fc)
# T4 construct: also called 4-1BB/CD137; not shown: Fc
# T4 sequence (Q07011 24-186 limits assumed): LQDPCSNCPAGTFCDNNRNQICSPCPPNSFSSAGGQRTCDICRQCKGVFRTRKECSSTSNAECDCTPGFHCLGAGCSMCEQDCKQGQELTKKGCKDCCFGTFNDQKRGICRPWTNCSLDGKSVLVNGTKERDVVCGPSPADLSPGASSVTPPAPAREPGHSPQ
# Text: The F2NNK DBD library was used in five rounds of selection against recombinant, biotinylated, Human 4-1BB/TNFRSF9/CD137-Fc.
# [7] = molecular target: T5, CD47-Fc (UniProt Q08722 19-139); assay: phage ELISA, target-Fc against non-specific control
# T5 construct: purified recombinant target-Fc protein; not shown: Fc
# T5 sequence (Q08722 19-139 limits assumed): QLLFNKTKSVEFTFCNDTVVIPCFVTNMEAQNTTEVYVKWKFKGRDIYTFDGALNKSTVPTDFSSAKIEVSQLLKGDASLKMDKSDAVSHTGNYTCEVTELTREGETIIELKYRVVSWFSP
# Procedure: (§2) Selections were also performed using F1, F2, F3, C1 & C2 trinucleotide phosphoramidite libraries. In most cases, libraries were pooled prior to use in selection. By combining equal volumes of the individual libraries, Pool F (libraries F1, F2 and F3) and Pool C (libraries C1 and C2) were generated. These libraries were used in selections for DBDpp binders to 4-1BB/CD137 as well as a larger panel of purified recombinant “target”-Fc proteins, including CD47, CTLA4, DR5, KIR, LAG3, OX40, PD1, PD-L1 and TIM3. (Many of these targets are considered immuno-regulatory factors (Pardoll et al., Nat. Rev. Cancer 12:252-264 (2012)). After incubation of the target with the pools of DBDpp phage libraries, bound phage-target complexes were captured and separated from unbound phage with protein A beads (target proteins were Fc fusions). After three rounds of selection, rescued phage clones were screened by ELISA for binding to the selected target.
# (§3) For each target, approximately 90 DBDpp phage clones were screened by ELISA for binding to the target protein and as well as a non-specific control (e.g., IgG1-Fc). […] In some instances, for the ELISA screening plate in which the majority of DBDpp clones were positive, the entire plate was sequenced.
# [8] = molecular target: T6, CTLA4-Fc (UniProt P16410 36-161, limits assumed); assay: as above
# T6 construct: purified recombinant target-Fc protein; not shown: Fc
# T6 sequence (P16410 36-161 limits assumed): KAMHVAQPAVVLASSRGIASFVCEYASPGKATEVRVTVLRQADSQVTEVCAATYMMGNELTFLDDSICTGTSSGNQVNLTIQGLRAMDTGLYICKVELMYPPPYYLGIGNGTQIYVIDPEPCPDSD
# Procedure: as §2, §3
# [9] = molecular target: T7, TIM3-Fc (UniProt Q8TDQ0 22-200); assay: as above
# T7 construct: purified recombinant target-Fc protein; not shown: Fc
# Procedure: as §2, §3
# [10] = molecular target: T8, PD1-Fc (UniProt Q15116 25-167); assay: as above
# T8 construct: purified recombinant target-Fc protein; not shown: Fc
# T8 sequence (Q15116 25-167 limits assumed): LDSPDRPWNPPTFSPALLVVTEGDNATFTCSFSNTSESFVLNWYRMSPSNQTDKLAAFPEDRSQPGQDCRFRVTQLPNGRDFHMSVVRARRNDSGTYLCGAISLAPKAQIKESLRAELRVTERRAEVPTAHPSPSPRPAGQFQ
# Procedure: as §2, §3
binder,measurement,setting,value
"FLAG-pb04 (designed binder, expressed and purified from E. coli; also called N-terminal FLAG tag fusion of pb04; soluble DBDpp (FLAG tagged) directed against PD-L1; not shown: N-terminal FLAG tag) MGSWYEFTVRLEAIHERLKALGGSEAELAAFEKEIAAFESELQAYKGKGNPEVEILRDDAAFIRRFLQAYRHN",EC50,[1],31.4 nM
same,EC50,[2],42.1 nM
"pb06 DBDpp-6xHIS fusion (designed binder, made by in vitro transcription and translation; not shown: 6xHIS tag) MGSWYEFDDRLNAIHDRLQALGGSEAELAAFEKEIAAFESELQAYKGKGNPEVEDLRDDAAFIRRFLQAYRHN",binding result,[3],binds
"cg06 DBDpp-CAR (other, expressed on Jurkat NFAT reporter cells; not shown: rest of the CAR (FLAG tag, linker, transmembrane and intracellular domains) not specified) MGSWDEFGRRLYAIEWRLYALGGSEAELAAFEKEIAAFESELQAYKGKGNPEVEKLREIAAVIRSNLQAYRHN",binding result,[4],binds
"FLAG-α3D (other, expressed and purified from E. coli; also called N-terminal FLAG tag fusion of a3D; alpha3D; not shown: N-terminal FLAG tag) MGSWAEFKQRLAAIKTRLQALGGSEAELAAFEKEIAAFESELQAYKGKGNPEVEALRKEAAAIRDELQAYRHN",binding result,[5],no binding (tested: about 1000 nM)
"bb10 (designed binder, F2NNK library clone) MGSWAEFKQRLAAIKTRLEALGGSEAELAAFLGEIWAFEMELAAYKGKGNPEVEALGREAAAIRMELQAYRHN",ELISA ratio (target to background),[6],5.27 ratio
SEQ ID NO 21 (designed binder) MGSWTEFTYRLSAIEWRLWALGGSEAELAWFEQKIAFFEDFLQYYKGKGNPEVEALKHEAGAILNELMAYRHN,ELISA ratio (target to background),[7],12.5 ratio
SEQ ID NO 22 (designed binder) MGSWAEFDHRLHAIRERLHALGGSEAELAAFEKEIAAFESELQAYKGKGNPEVEILRGNAAYIRALLQAYRHN,ELISA ratio (target to background),[7],11.7 ratio
SEQ ID NO 23 (designed binder) MGSWTEFVGRLAAIEFRLWALGGSEAELAWFEAHIAFFEDYLQWYKGKGNPEVEALREEAGAIMEELKAYRHN,ELISA ratio (target to background),[7],8.23 ratio
SEQ ID NO 24 (designed binder) MGSWTEFYSRLEAIWVRLQALGGSEAELAMFEDRIAHFEWFLQQYKGKGNPEVEALHEEAIAIRKELAAYRHN,ELISA ratio (target to background),[7],4.58 ratio
SEQ ID NO 25 (designed binder) MGSWHEFHDRLQAIHERLYALGGSEAELAAFEKEIAAFESELQAYKGKGNPEVESLRIAAAHIRQVLQAYRHN,ELISA ratio (target to background),[8],2.95 ratio
SEQ ID NO 45 (designed binder) MGSWVVFKVDLATIKYILEALGGSEAELAEFEGEIAGFEYSLQFYKGKGNPEVEALRKEAAAIRDELQAYRHN,ELISA ratio (target to background),[9],5.79 ratio
SEQ ID NO 46 (designed binder) MGSWTIFKEWLAFIKTDLEALGGSEAELAFFEGWIASFEMELQKYKGKGNPEVEALRKEAAAIRDELQAYRHN,ELISA ratio (target to background),[10],17.1 ratio
SEQ ID NO 47 (designed binder) MGSWVMFKWLLADIKSHLEALGGSEAELAFFEGFIAAFETHLQVYKGKGNPEVEALRKEAAAIRDELQAYRHN,ELISA ratio (target to background),[10],8.13 ratio
SEQ ID NO 48 (designed binder) MGSWYAFKDYLADIKGWLEALGGSEAELAFFEIFIARFELELQAYKGKGNPEVEALRKEAAAIRDELQAYRHN,ELISA ratio (target to background),[10],3.29 ratio
